# T1: M. tuberculosis σ^ACTD fused to the T18 domain of Bordetella pertussis adenylate cyclase (Mycobacterium tuberculosis, UniProt P9WGI1 447-528)
# T1 construct: also called T18-σ^ACTD
# T1 sequence: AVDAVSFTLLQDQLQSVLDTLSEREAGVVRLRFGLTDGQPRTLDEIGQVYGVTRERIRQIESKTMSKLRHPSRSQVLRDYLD
# B1: Mycobacterium tuberculosis WhiB1, untagged, [4Fe-4S] form (holo-WhiB1), co-expressed with His-tagged σ^A or σ^ACTD (natural protein)
# chain: MDWRHKAVCRDEDPELFFPVGNSGPALAQIADAKLVCNRCPVTTECLSWALNTGQDSGVWGGMSEDERRALKRRNARTKARTGV
# modifications: [4Fe-4S] cluster coordinated by cysteine residues 9, 37, 40 and 46
# notes: Iron-sulfur cluster assembled in vivo; free [4Fe-4S]; WhiB1 seen at 9668 Da and apo-WhiB1 at 9315 Da in native ESI-MS; also called [4Fe-4S]-WhiB1; untagged WhiB1
# B2: His-tagged C-terminal domain (amino acids Ala447-Asp528) of M. tuberculosis σ^A (domain or fragment)
# chain: AVDAVSFTLLQDQLQSVLDTLSEREAGVVRLRFGLTDGQPRTLDEIGQVYGVTRERIRQIESKTMSKLRHPSRSQVLRDYLD
# notes: A thrombin cleavage site lies between the His6 tag and the domain; seen at 11,522 Da in native ESI-MS; also called His-σ^ACTD; σ^ACTD; not shown: His6, N-terminal, kept
# Legend:
# [1] = molecular target: B2; assay: native MS; details: both partners purified
# [2] = molecular target: T1, M. tuberculosis σ^ACTD fused to the T18 …; assay: two-hybrid; details: partners not purified
# [3] = molecular target: B1; assay: pull-down; details: partners not purified
binder,measurement,setting,value
B1,stoichiometry N,[1],1
"M. tuberculosis WhiB1 fused to the T25 domain of Bordetella pertussis adenylate cyclase (natural protein, also called T25-WhiB1) MDWRHKAVCRDEDPELFFPVGNSGPALAQIADAKLVCNRCPVTTECLSWALNTGQDSGVWGGMSEDERRALKRRNARTKARTGV",β-galactosidase activity against the negative control (vectors only),[2],~20 fold
same,β-galactosidase activity against the positive control (Zip-Zip),[2],~3 fold lower
B2,binding result,[3],binds
